Data from patent US20160244525A1.

B1: 2B.1.74 (antibody, human IgG1, kappa, V domains shown)
VH: EVQLVESGGGLVQPGGSLRLSCAASGFTFTSTGISWVRQAPGKGLEWVGRYHPFRGSTNYADSVKGRFTISADTSKNTAYLQMNSLRAEDTAVYYCARTYGIYDLYVDYTEYVMDYWGQGTLVTVSS
VL: DIQMTQSPSSLSASVGDRVTITCRASQDVDTSLAWYKQKPGKAPKLLIYSASFLYSGVPSRFSGSGSGTDFTLTISSLQPEDFATYYCQQSTGHPQTFGQGTKVEIKR
B2: 2B.1.94 (antibody, human IgG1, kappa, V domains shown)
VH: EVQLVESGGGLVQPGGSLRLSCAASGFTFTSTGISWVRQAPGKGLEWVGRLVFFSGSTNYADSVKGRFTISADTSKNTAYLQMNSLRAEDTAVYYCARTYGIYDLYVDYTEYVMDYWGQGTLVTVSS
VL: DIQMTQSPSSLSASVGDRVTITCRASQDVDTSLAWYKQKPGKAPKLLIYSASFLYSGVPSRFSGSGSGTDFTLTISSLQPEDFATYYCQQSTGHPQTFGQGTKVEIKR
B3: 2B.1.14 (antibody, human IgG1, kappa, V domains shown)
VH: EVQLVESGGGLVQPGGSLRLSCAASGFTFTSTGISWVRQAPGKGLEWVGRLWYFDGSTNYADSVKGRFTISADTSKNTAYLQMNSLRAEDTAVYYCARTYGIYDLYVDYTEYVMDYWGQGTLVTVSS
VL: DIQMTQSPSSLSASVGDRVTITCRASQDVDTSLAWYKQKPGKAPKLLIYSASFLYSGVPSRFSGSGSGTDFTLTISSLQPEDFATYYCQQSTGHPQTFGQGTKVEIKR
B4: 2B.1.30 (antibody, human IgG1, kappa, V domains shown)
VH: EVQLVESGGGLVQPGGSLRLSCAASGFTFTSTGISWVRQAPGKGLEWVGRVSFFSGSTNYADSVKGRFTISADTSKNTAYLQMNSLRAEDTAVYYCARTYGIYDLYVDYTEYVMDYWGQGTLVTVSS
VL: DIQMTQSPSSLSASVGDRVTITCRASQDVDTSLAWYKQKPGKAPKLLIYSASFLYSGVPSRFSGSGSGTDFTLTISSLQPEDFATYYCQQSTGHPQTFGQGTKVEIKR
B5: 2B.1.44 (antibody, human IgG1, kappa, V domains shown)
VH: EVQLVESGGGLVQPGGSLRLSCAASGFTFTSTGISWVRQAPGKGLEWVGRWWSWGGSTNYADSVKGRFTISADTSKNTAYLQMNSLRAEDTAVYYCARTYGIYDLYVDYTEYVMDYWGQGTLVTVSS
VL: DIQMTQSPSSLSASVGDRVTITCRASQDVDTSLAWYKQKPGKAPKLLIYSASFLYSGVPSRFSGSGSGTDFTLTISSLQPEDFATYYCQQSTGHPQTFGQGTKVEIKR
B6: 2B.1.28 (antibody, human IgG1, kappa, V domains shown)
VH: EVQLVESGGGLVQPGGSLRLSCAASGFTFTSTGISWVRQAPGKGLEWVGRFWAWSGSTNYADSVKGRFTISADTSKNTAYLQMNSLRAEDTAVYYCARTYGIYDLYVDYTEYVMDYWGQGTLVTVSS
VL: DIQMTQSPSSLSASVGDRVTITCRASQDVDTSLAWYKQKPGKAPKLLIYSASFLYSGVPSRFSGSGSGTDFTLTISSLQPEDFATYYCQQSTGHPQTFGQGTKVEIKR
B7: 2B.1.52 (antibody, human IgG1, kappa, V domains shown)
VH: EVQLVESGGGLVQPGGSLRLSCAASGFTFTSTGISWVRQAPGKGLEWVGRFSLGDGSTNYADSVKGRFTISADTSKNTAYLQMNSLRAEDTAVYYCARTYGIYDLYVDYTEYVMDYWGQGTLVTVSS
VL: DIQMTQSPSSLSASVGDRVTITCRASQDVDTSLAWYKQKPGKAPKLLIYSASFLYSGVPSRFSGSGSGTDFTLTISSLQPEDFATYYCQQSTGHPQTFGQGTKVEIKR
B8: 2B.1.25 (antibody, human IgG1, kappa, V domains shown)
VH: EVQLVESGGGLVQPGGSLRLSCAASGFTFTSTGISWVRQAPGKGLEWVGRWHPWMGSTNYADSVKGRFTISADTSKNTAYLQMNSLRAEDTAVYYCARTYGIYDLYVDYTEYVMDYWGQGTLVTVSS
VL: DIQMTQSPSSLSASVGDRVTITCRASQDVDTSLAWYKQKPGKAPKLLIYSASFLYSGVPSRFSGSGSGTDFTLTISSLQPEDFATYYCQQSTGHPQTFGQGTKVEIKR
B9: 2B.1.71 (antibody, human IgG1, kappa, V domains shown)
VH: EVQLVESGGGLVQPGGSLRLSCAASGFTFTSTGISWVRQAPGKGLEWVGRVWMFDGSTNYADSVKGRFTISADTSKNTAYLQMNSLRAEDTAVYYCARTYGIYDLYVDYTEYVMDYWGQGTLVTVSS
VL: DIQMTQSPSSLSASVGDRVTITCRASQDVDTSLAWYKQKPGKAPKLLIYSASFLYSGVPSRFSGSGSGTDFTLTISSLQPEDFATYYCQQSTGHPQTFGQGTKVEIKR
B10: 2B.1.65 (antibody, human IgG1, kappa, V domains shown)
VH: EVQLVESGGGLVQPGGSLRLSCAASGFTFTSTGISWVRQAPGKGLEWVGRYNAYTGSTNYADSVKGRFTISADTSKNTAYLQMNSLRAEDTAVYYCARTYGIYDLYVDYTEYVMDYWGQGTLVTVSS
VL: DIQMTQSPSSLSASVGDRVTITCRASQDVDTSLAWYKQKPGKAPKLLIYSASFLYSGVPSRFSGSGSGTDFTLTISSLQPEDFATYYCQQSTGHPQTFGQGTKVEIKR
B11: 2B.1.55 (antibody, human IgG1, kappa, V domains shown)
VH: EVQLVESGGGLVQPGGSLRLSCAASGFTFTSTGISWVRQAPGKGLEWVGRVDVFWGSTNYADSVKGRFTISADTSKNTAYLQMNSLRAEDTAVYYCARTYGIYDLYVDYTEYVMDYWGQGTLVTVSS
VL: DIQMTQSPSSLSASVGDRVTITCRASQDVDTSLAWYKQKPGKAPKLLIYSASFLYSGVPSRFSGSGSGTDFTLTISSLQPEDFATYYCQQSTGHPQTFGQGTKVEIKR
B12: 2B.1.50 (antibody, human IgG1, kappa, V domains shown)
VH: EVQLVESGGGLVQPGGSLRLSCAASGFTFTSTGISWVRQAPGKGLEWVGRLNFYSGSTNYADSVKGRFTISADTSKNTAYLQMNSLRAEDTAVYYCARTYGIYDLYVDYTEYVMDYWGQGTLVTVSS
VL: DIQMTQSPSSLSASVGDRVTITCRASQDVDTSLAWYKQKPGKAPKLLIYSASFLYSGVPSRFSGSGSGTDFTLTISSLQPEDFATYYCQQSTGHPQTFGQGTKVEIKR
B13: 2B.1.72 (antibody, human IgG1, kappa, V domains shown)
VH: EVQLVESGGGLVQPGGSLRLSCAASGFTFTSTGISWVRQAPGKGLEWVGRVHPFEGSTNYADSVKGRFTISADTSKNTAYLQMNSLRAEDTAVYYCARTYGIYDLYVDYTEYVMDYWGQGTLVTVSS
VL: DIQMTQSPSSLSASVGDRVTITCRASQDVDTSLAWYKQKPGKAPKLLIYSASFLYSGVPSRFSGSGSGTDFTLTISSLQPEDFATYYCQQSTGHPQTFGQGTKVEIKR
B14: 2B.1.81 (antibody, human IgG1, kappa, V domains shown)
VH: EVQLVESGGGLVQPGGSLRLSCAASGFTFTSTGISWVRQAPGKGLEWVGRVNNFYGSTNYADSVKGRFTISADTSKNTAYLQMNSLRAEDTAVYYCARTYGIYDLYVDYTEYVMDYWGQGTLVTVSS
VL: DIQMTQSPSSLSASVGDRVTITCRASQDVDTSLAWYKQKPGKAPKLLIYSASFLYSGVPSRFSGSGSGTDFTLTISSLQPEDFATYYCQQSTGHPQTFGQGTKVEIKR
B15: 2B.1.82 (antibody, human IgG1, kappa, V domains shown)
VH: EVQLVESGGGLVQPGGSLRLSCAASGFTFTSTGISWVRQAPGKGLEWVGRINFFSGSTNYADSVKGRFTISADTSKNTAYLQMNSLRAEDTAVYYCARTYGIYDLYVDYTEYVMDYWGQGTLVTVSS
VL: DIQMTQSPSSLSASVGDRVTITCRASQDVDTSLAWYKQKPGKAPKLLIYSASFLYSGVPSRFSGSGSGTDFTLTISSLQPEDFATYYCQQSTGHPQTFGQGTKVEIKR
B16: 2B.1.80 (antibody, human IgG1, kappa, V domains shown)
VH: EVQLVESGGGLVQPGGSLRLSCAASGFTFTSTGISWVRQAPGKGLEWVGRYWAFSGSTNYADSVKGRFTISADTSKNTAYLQMNSLRAEDTAVYYCARTYGIYDLYVDYTEYVMDYWGQGTLVTVSS
VL: DIQMTQSPSSLSASVGDRVTITCRASQDVDTSLAWYKQKPGKAPKLLIYSASFLYSGVPSRFSGSGSGTDFTLTISSLQPEDFATYYCQQSTGHPQTFGQGTKVEIKR
B17: 2B.1.35 (antibody, human IgG1, kappa, V domains shown)
VH: EVQLVESGGGLVQPGGSLRLSCAASGFTFTSTGISWVRQAPGKGLEWVGRWHPFRGSTNYADSVKGRFTISADTSKNTAYLQMNSLRAEDTAVYYCARTYGIYDLYVDYTEYVMDYWGQGTLVTVSS
VL: DIQMTQSPSSLSASVGDRVTITCRASQDVDTSLAWYKQKPGKAPKLLIYSASFLYSGVPSRFSGSGSGTDFTLTISSLQPEDFATYYCQQSTGHPQTFGQGTKVEIKR
B18: 2B.1.20 (antibody, human IgG1, kappa, V domains shown)
VH: EVQLVESGGGLVQPGGSLRLSCAASGFTFTSTGISWVRQAPGKGLEWVGRLDVFWGSTNYADSVKGRFTISADTSKNTAYLQMNSLRAEDTAVYYCARTYGIYDLYVDYTEYVMDYWGQGTLVTVSS
VL: DIQMTQSPSSLSASVGDRVTITCRASQDVDTSLAWYKQKPGKAPKLLIYSASFLYSGVPSRFSGSGSGTDFTLTISSLQPEDFATYYCQQSTGHPQTFGQGTKVEIKR
B19: 2B.1.93 (antibody, human IgG1, kappa, V domains shown)
VH: EVQLVESGGGLVQPGGSLRLSCAASGFTFTSTGISWVRQAPGKGLEWVGRIDNYWGSTNYADSVKGRFTISADTSKNTAYLQMNSLRAEDTAVYYCARTYGIYDLYVDYTEYVMDYWGQGTLVTVSS
VL: DIQMTQSPSSLSASVGDRVTITCRASQDVDTSLAWYKQKPGKAPKLLIYSASFLYSGVPSRFSGSGSGTDFTLTISSLQPEDFATYYCQQSTGHPQTFGQGTKVEIKR
B20: 2B.1.38 (antibody, human IgG1, kappa, V domains shown)
VH: EVQLVESGGGLVQPGGSLRLSCAASGFTFTSTGISWVRQAPGKGLEWVGRFWAYDGSTNYADSVKGRFTISADTSKNTAYLQMNSLRAEDTAVYYCARTYGIYDLYVDYTEYVMDYWGQGTLVTVSS
VL: DIQMTQSPSSLSASVGDRVTITCRASQDVDTSLAWYKQKPGKAPKLLIYSASFLYSGVPSRFSGSGSGTDFTLTISSLQPEDFATYYCQQSTGHPQTFGQGTKVEIKR
B21: 2B.1.78 (antibody, human IgG1, kappa, V domains shown)
VH: EVQLVESGGGLVQPGGSLRLSCAASGFTFTSTGISWVRQAPGKGLEWVGRLSFYSGSTNYADSVKGRFTISADTSKNTAYLQMNSLRAEDTAVYYCARTYGIYDLYVDYTEYVMDYWGQGTLVTVSS
VL: DIQMTQSPSSLSASVGDRVTITCRASQDVDTSLAWYKQKPGKAPKLLIYSASFLYSGVPSRFSGSGSGTDFTLTISSLQPEDFATYYCQQSTGHPQTFGQGTKVEIKR
B22: 2B.1.33 (antibody, human IgG1, kappa, V domains shown)
VH: EVQLVESGGGLVQPGGSLRLSCAASGFTFTSTGISWVRQAPGKGLEWVGRYHPFHGSTNYADSVKGRFTISADTSKNTAYLQMNSLRAEDTAVYYCARTYGIYDLYVDYTEYVMDYWGQGTLVTVSS
VL: DIQMTQSPSSLSASVGDRVTITCRASQDVDTSLAWYKQKPGKAPKLLIYSASFLYSGVPSRFSGSGSGTDFTLTISSLQPEDFATYYCQQSTGHPQTFGQGTKVEIKR

What follows are binders tested against FGFR2-IIIb (human) (UniProt P21802) (assay: SPR (Biacore T100), IgG captured by anti-human Fc, FGFR flowed).
Chain of FGFR2-IIIb (human) (P21802 other isoform, or with tags, fused parts or gaps limits assumed): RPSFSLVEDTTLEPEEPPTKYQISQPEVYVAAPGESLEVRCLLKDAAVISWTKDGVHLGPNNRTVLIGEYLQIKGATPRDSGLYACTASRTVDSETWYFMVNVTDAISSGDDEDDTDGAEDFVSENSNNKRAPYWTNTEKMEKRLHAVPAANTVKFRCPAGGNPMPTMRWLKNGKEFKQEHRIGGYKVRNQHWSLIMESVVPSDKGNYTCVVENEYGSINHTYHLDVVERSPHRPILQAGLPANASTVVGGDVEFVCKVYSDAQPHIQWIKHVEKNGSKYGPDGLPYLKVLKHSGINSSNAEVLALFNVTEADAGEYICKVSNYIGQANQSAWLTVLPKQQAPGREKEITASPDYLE
A Kd of 1.4 nM was found for B1 in this work. A Kd of 3.1 nM was found for B2 in this work. A Kd of 1.6 nM was found for B3 in this work. A Kd of 4.1 nM was found for B4 in this work. A Kd of 3.6 nM was found for B5 in this work. A Kd of 1.8 nM was found for B6 in this work. A Kd of 3.9 nM was found for B7 in this work. A Kd of 2.3 nM was found for B8 in this work. A Kd of 1.6 nM was found for B9 in this work. A Kd of 2.7 nM was found for B10 in this work. A Kd of 5.9 nM was found for B11 in this work. A Kd of 2 nM was found for B12 in this work. A Kd of 3.5 nM was found for B13 in this work. A Kd of 2.1 nM was found for B14 in this work. A Kd of 4.9 nM was found for B15 in this work. A Kd of 17 nM was found for B16 in this work. A Kd of 9.4 nM was found for B17 in this work. A Kd of 1.2 nM was found for B18 in this work. A Kd of 5.1 nM was found for B19 in this work. A Kd of 1.1 nM was found for B20 in this work. A Kd of 3.2 nM was found for B21 in this work. A Kd of 15 nM was found for B22 in this work.
